# Results: publication PMC10691696, “ZmEREB92 plays a negative role in seed germination by regulating ethylene signaling and starch mobilization in maize”
# B1: pAMYa2-C (dsDNA)
# DNA 1: TCGTCGTCTCGCCGCCGCCGCCGCCGCCGCAACGGGTCT
# DNA 2: AGACCCGTTGCGGCGGCGGCGGCGGCGGCGAGACGACGA
# B2: pAMYa2-A (dsDNA)
# DNA 1: TCAAGAATTTAAGGCGGCGAAAGCCGAC
# DNA 2: GTCGGCTTTCGCCGCCTTAAATTCTTGA
# Target: ZmEREB92 (Zea mays, UniProt B6SIZ8 1-233)
# Assay: EMSA; 200x unlabeled probe used as competitor; EMSA: 0.2 pmol biotin probe with ZmEREB92-His, 30 min at 28 °C, 6.5% native PAGE, chemiluminescence kit (Beyotime); buffer, salt and pH not given
# Details: protein: recombinant; tags: His-tag (C-terminal as stated; pET32a vector); label: biotin; blunt
# Chain of ZmEREB92 (B6SIZ8 entry or part of it): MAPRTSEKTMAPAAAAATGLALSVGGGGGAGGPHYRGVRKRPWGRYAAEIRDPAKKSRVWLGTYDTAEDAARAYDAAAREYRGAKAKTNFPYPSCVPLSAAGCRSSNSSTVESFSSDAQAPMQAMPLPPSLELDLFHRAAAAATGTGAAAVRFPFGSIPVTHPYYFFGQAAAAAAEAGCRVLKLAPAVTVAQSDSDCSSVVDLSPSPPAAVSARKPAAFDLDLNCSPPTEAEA
row,Binder,binding result
1,B1,binds
2,B2,binds
